Changes are numbered by the printed parent chain. Names may count otherwise.
T1: hu-CD96 isoform 2 on CHO cells (human, UniProt P40200 22-585)
T1 construct: also called CHO-CD96 (isoform 2); CD96-CHOs
T1 sequence: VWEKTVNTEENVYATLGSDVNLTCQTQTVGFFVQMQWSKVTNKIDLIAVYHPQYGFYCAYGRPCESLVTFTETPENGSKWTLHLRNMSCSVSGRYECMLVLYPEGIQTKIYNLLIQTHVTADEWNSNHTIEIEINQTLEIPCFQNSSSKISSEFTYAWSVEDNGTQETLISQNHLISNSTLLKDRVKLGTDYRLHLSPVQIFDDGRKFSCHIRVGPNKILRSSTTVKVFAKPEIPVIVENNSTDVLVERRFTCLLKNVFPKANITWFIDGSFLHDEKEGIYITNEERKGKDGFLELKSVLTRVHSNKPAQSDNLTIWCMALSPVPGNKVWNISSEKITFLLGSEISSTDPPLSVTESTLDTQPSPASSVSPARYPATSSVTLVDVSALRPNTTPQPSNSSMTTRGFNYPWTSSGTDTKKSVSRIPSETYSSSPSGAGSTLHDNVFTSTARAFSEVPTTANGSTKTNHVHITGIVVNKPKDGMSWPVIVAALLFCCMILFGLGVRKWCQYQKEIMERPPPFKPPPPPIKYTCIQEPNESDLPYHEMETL

T2: cy-CD96 (soluble, extracellular domain) (cynomolgus monkey, UniProt P40200 22-516 (human entry), biotinylated in Octet and blocking ELISA)
T2 construct: the assays name only cy-CD96; also called biotinylated cy-CD96
T2 chain: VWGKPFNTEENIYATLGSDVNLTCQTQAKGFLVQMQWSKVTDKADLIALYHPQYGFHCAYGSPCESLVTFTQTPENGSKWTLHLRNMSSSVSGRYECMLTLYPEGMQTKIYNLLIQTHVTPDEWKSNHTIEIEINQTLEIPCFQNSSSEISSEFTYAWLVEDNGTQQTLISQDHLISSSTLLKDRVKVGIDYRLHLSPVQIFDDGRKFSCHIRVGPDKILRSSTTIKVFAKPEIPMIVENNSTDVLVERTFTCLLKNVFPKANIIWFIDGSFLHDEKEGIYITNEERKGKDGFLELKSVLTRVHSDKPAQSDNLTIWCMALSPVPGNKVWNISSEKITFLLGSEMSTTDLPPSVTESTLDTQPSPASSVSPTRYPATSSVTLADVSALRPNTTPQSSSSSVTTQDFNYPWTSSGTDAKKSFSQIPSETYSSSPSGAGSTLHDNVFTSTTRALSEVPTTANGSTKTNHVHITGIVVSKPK

B1: mAb1.v7.NGS9 IgG (antibody, V domains shown)
VH: EVQLVQSGAEVKKPGASVKVSCKASGFTFTNNFMHWVRQAPGQGLEWIGMIHANSGITNINEKFKNRVTMTTDTSTSTAYMELRSLRSEDTAVYYCRSDGVYEGYFDYWGQGTLVTVSS
VL: DIQLTQSPSSLSASVGDRVTITCKASQNVGTAIVWYQQKPGKAPKVLIYSASTRYTGVPSRFSGSGSGTDFTLTISSLQPEDFATYYCQQYSSSPLTFGQGTKVEIKG
notes: human IgG1 N297G
B2: mAb1.v7.NGS11 IgG (antibody, V domains shown)
VH: B1 VH with M50F
VL: B1 VL
notes: human IgG1 N297G
B3: mAb1.v7.NGS10 IgG (antibody, V domains shown)
VH: B1 VH with M50F, V101I
VL: B1 VL
notes: human IgG1 N297G
B4: h10G1 IgG (humanized 10G1) (antibody, V domains shown)
VH: EIQLVQSGSELKKPGASVKVSCKASGYPFTTYGMSWVRQAPGQGLEWMGWINTDSGVPTYADDFKGRFVFSLDTSVSTAYLQISSLKAEDTAVYFCARNIYYGWGNFDYWGQGTLVTVSS
VL: EIVMTQSPDFQSVTPKEKVTITCRASQDIYRNLHWYQQKPDQTPKLLIKHASDSISGIPSRFSGSGSGTDFTLTINSLEAEDAAAYYCLQGYSMPYTFGGGTKVEIKG
notes: human IgG1 N297G
B5: mAb1.v7.2 Fab (Fab, V domains shown)
VH: B1 VH with F33W, M34R, A53F
VL: DIQLTQSPSSLSASVGDRVTITCKASQNVGTAIVWYQQKPGKAPKVLIYSASTRYTGVPSRFSGSGSGTDFTLTISSLQPEDFATYYCQQYSSSPLTFGQGTKVEIK
notes: also called M34R/P52aF/T97V
B6: mAb1.v7.9 Fab (Fab, V domains shown)
VH: B1 VH with F33W, M34R, A53M
VL: B5 VL
notes: also called M34R/P52aM/T97V
B7: mAb1.v7.48 Fab (Fab, V domains shown)
VH: B1 VH with N32R, F33W, A53H
VL: B5 VL
notes: also called N32R/P52aH/T97V
B8: mAb1.v7.16 Fab (Fab, V domains shown)
VH: B1 VH with F33W, M34R, A53P
VL: B5 VL
notes: also called M34R/T97V
B9: mAb1.v7.70 Fab (Fab, V domains shown)
VH: B1 VH with N32R, F33W
VL: B5 VL
notes: also called N32R/P52aA/T97V

What follows are binders tested against T1, hu-CD96 isoform 2 on CHO cells (assay: FACS, CD155-Fc-FLAG 10 nM, Ab 20 nM).
Protocol: (§1) CHO cells stably expressing isoform 2 of hu-CD96 (Origene, catalog #RC221005) were incubated with anti-CD96 antibodies for 20 minutes at 4° C. The cells were washed, and then incubated with 10 nM human CD155-Fc-FLAG for 30 minutes at 4° C. Cells were washed, and then human CD155-Fc-FLAG binding was detected by incubation with anti-FLAG-APC (Columbia Biosciences, catalog #D3-1718-1MG) for 20 minutes at 4° C. Cell binding was analyzed by flow cytometry with a CytoFLEX (Beckman Coulter). CD155 binding is represented as median fluorescence intensity (MedFI).
(§2) As shown in Table 20 (below), the anti-CD96 antibodies, mAb1.v7.NGS8, mAb1.v7.NGS9, mAb1.v7.NGS10, mAb1.v7.NGS11, and h10G1 inhibited soluble hu-CD155 binding to CD96-expressing CHO cells dose-dependently and potently. The antibody NK92.39 (Fuchs et al., 2004; Biolegend catalog #338405) inhibited receptor binding similarly.

Row | Binder | CD155-Fc binding (MedFI)
1 | B1 | 4260
2 | B2 | 4460
3 | B3 | 4940
4 | B4 | 4860

Molecular target: T2, cy-CD96 (soluble, extracellular domain)
Assay: BLI (Octet), biotin-CD96 on SA, Fab analyte
Protocol: The binding affinity of the generated Fab variants of mAb1.v7 for hu-CD96 and cy-CD96 was determined by OCTET (Pall ForteBio) Bio-Layer Interferometry (BLI) binding analysis. The biotinylated hu-CD96 or biotinylated cy-CD96 was diluted to a final concentration 10 µg/mL in experimental buffer (PBS buffer with 0.01% Tween-20) and immobilized on the Streptavidin Capture (SA) biosensors (Pall ForteBio). Three-fold serial dilutions of the mAb1.v7 Fab variants starting at 1 µM as analytes were diluted in the experimental buffer (PBS buffer with 0.01% Tween-20). The biosensors were equilibrated in experimental buffer at 30° C. for ten minutes prior to starting the experiment. The kinetics experiment was performed with the following steps, where the step name, solution and time are listed: Baseline (buffer—60 seconds), Loading (biotinylated antigen—200 seconds), Baseline 2 (buffer—minimum 120 seconds), Association (analyte—200-300 seconds) and Dissociation (buffer—1000 seconds). The resulting BLI signal from analyte association and dissociation from the […] was analyzed using the Octet Data Analysis software (Pall ForteBio). First a reference subtraction was performed on all recorded traces using the reference well (biosensor that underwent same steps as experimental wells but no analyte for the Association step) and then all the traces were aligned to the beginning of the Association step. The entirety of the Association and Dissociation steps were used in a Global fit (minimum of four analyte concentration traces) in a 1:1 binding model to calculate the K_D values for the 16 selected individual mAb1.v7 Fab variants as summarized in Table 9 (below).

Row | Binder | Kd [nM]
5 | B5 | 39.1
6 | B6 | 129
7 | B7 | 68
8 | B8 | 97.9
9 | B9 | 52.6

The binders below were run against T1, hu-CD96 isoform 2 on CHO cells (assay: FACS, blocks 10 nM CD155-Fc-FLAG binding to CD96-CHO).
Protocol: as §1, §2

Row | Binder | IC50 [nM]
10 | B1 | 0.91
11 | B2 | 0.46
12 | B3 | 0.57
13 | B4 | 0.06

Reference: patent publication US12365732 (23ANDME, dated 2025)
